The target in this experiment is PNR hinge-LBD (131–410) (human) (UniProt Q9Y5X4). Briefly: two-hybrid; as a1, yeast cultured in the presence of the cognate ligand of the AAD partner (T3 for TRβ).
Sequence of UniProt Q9Y5X4 (Q9Y5X4 131-410): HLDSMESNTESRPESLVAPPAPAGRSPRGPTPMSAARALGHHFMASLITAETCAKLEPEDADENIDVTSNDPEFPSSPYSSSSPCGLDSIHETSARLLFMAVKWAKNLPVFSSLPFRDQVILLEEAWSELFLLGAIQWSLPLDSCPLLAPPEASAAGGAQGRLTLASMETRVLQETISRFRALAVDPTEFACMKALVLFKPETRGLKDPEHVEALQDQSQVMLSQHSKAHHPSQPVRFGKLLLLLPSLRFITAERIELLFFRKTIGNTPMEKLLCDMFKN

With “near full-length VP16-TRβ1 construct (from UniProt P10828 1-461) (domain or fragment)”, the fold induction of reporter activity by T3 was 20 fold.

The values above are taken from article PMC5386588.
